These results are taken from patent US20250320281A1.

Common to all, as to assay: cell-based or functional assay
Assay [1] concerns the target HIV-1 Env of pseudovirus MGRM-G-028 (HIV-1, clade G isolate MGRM-G-028).
The target in assay [2] is HIV-1 Env of isolate 93TH305, clade B, on pseudovirus (HIV-1).
Assay [3] has as its target HIV-1 Env of isolate APV_6, clade B, on pseudovirus (HIV-1).
For assay [4], the target named is HIV-1 Env of pseudovirus MGRM-G-009 (clade G) (HIV-1).
The target in assay [5] is HIV-1 envelope glycoprotein (Env) of isolate MGRM-A-005, clade A (HIV-1).
For assay [6], the target named is HIV-1 Env of pseudovirus MGRM-Chronic-B-020 (HIV-1).
The target in assay [7] is HIV-1 Env of pseudovirus MGRM-Chronic-B-018 (HIV-1).
In assay [8] the target is HIV-1 envelope glycoprotein (Env) of isolate MGRM-A-001, clade A (HIV-1).
In assay [9] the target is HIV-1 Env of pseudovirus MGRM-F1-020 (HIV-1).
Assay [10] has as its target aMLV envelope protein on pseudovirus (negative control).
Assay [11] concerns the target HIV-1 Env of isolate 92UG046 (clade D pseudovirus) (HIV-1).
The target in assay [12] is HIV-1 Env of isolate APV_13, clade B, on pseudovirus (HIV-1).
Assay [13] addresses HIV-1 Env of pseudovirus CMU02 (clade CRF01_AE) (HIV-1).
Assay [14] deals with HIV-1 Env of isolate 92UG001 (clade D pseudovirus) (HIV-1).
Assay [15] addresses HIV-1 Env of pseudovirus MGRM-G-004 (clade G) (HIV-1).
Assay [16] addresses HIV-1 envelope glycoprotein (Env) of isolate 92UG031, clade A (HIV-1).
Assay [17] addresses HIV-1 Env of isolate MGRM-D-020 (clade D pseudovirus) (HIV-1).

Sequence of 1443_C16 (PG16) (TCN-116) (antibody) (VH): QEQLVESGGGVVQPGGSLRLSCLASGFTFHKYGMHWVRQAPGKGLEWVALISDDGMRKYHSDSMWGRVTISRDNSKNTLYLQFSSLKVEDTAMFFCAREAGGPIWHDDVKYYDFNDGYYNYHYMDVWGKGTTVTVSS
Sequence of 1443_C16 (PG16) (TCN-116) (antibody) (VL): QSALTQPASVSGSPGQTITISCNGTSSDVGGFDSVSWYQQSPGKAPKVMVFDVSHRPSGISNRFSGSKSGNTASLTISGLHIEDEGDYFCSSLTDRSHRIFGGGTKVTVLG

Broadly, the IC50 is the point on the concentration scale where inhibition reaches its midpoint. For 2G12 (antibody), the IC50 (µg/ml), pseudovirus neutralization is 28.2 µg/mL in [1]; 0.55 µg/mL in [2]; 1.9 µg/mL in assay [3]; greater than 50 µg/mL in assay [5]; 0.2 µg/mL in assay [6]; greater than 50 µg/mL in [7]. The IC50 (µg/ml), pseudovirus neutralization in [8] is greater than 50 µg/mL; in assay [9], greater than 50 µg/mL; in assay [11] it was greater than 50 µg/mL; in assay [12], 9.24 µg/mL; in [14] it was greater than 50 µg/mL; in [16], greater than 50 µg/mL. In assay [17], this substance yielded an IC50 (µg/ml), pseudovirus neutralization greater than 50 µg/mL. In addition, the IC50 in assay [4], in [13] and in assay [15] was greater than 50 µg/mL throughout. Moreover, in assay [10], the IC90 (pseudovirus neutralization) was greater than 50 µg/mL.
Consider 4E10 (antibody), for which the IC50 (µg/ml), pseudovirus neutralization was 6.32 µg/mL in [1]; 12.3 µg/mL in assay [2]; 1.1 µg/mL in assay [3]; 4.09 µg/mL in assay [5]; 2.45 µg/mL in [6]; 23.2 µg/mL in assay [7]. Besides, the IC50 (µg/ml), pseudovirus neutralization in assay [8] came out at 15.1 µg/mL; in assay [9] it was 0.66 µg/mL; in assay [11] it was 12.2 µg/mL; in assay [12] it was 7.33 µg/mL; in assay [14], 13.6 µg/mL; in assay [16], 4.94 µg/mL. This substance also displayed an IC50 (µg/ml), pseudovirus neutralization in assay [17] greater than 50 µg/mL. In addition, the values for the IC50 in assay [4], in [13] and in [15] were 1.34 µg/mL, 0.72 µg/mL and 1.47 µg/mL, respectively. Also, in assay [10], the IC90 (pseudovirus neutralization) is greater than 50 µg/mL.
For 1443_C16 (PG16) (TCN-116) (antibody), the IC50 (µg/ml), pseudovirus neutralization in assay [1] was 3.09 µg/mL; in assay [2], 19.3 µg/mL; in assay [3], 0.29 µg/mL; in assay [5], 0.09 µg/mL; in assay [6], greater than 50 µg/mL; in [7], 0.7 µg/mL. In addition, the IC50 (µg/ml), pseudovirus neutralization in assay [8] was greater than 50 µg/mL; in [9] it was 4.35 µg/mL; in assay [11], 1.42 µg/mL; in assay [12] it was greater than 50 µg/mL; in [14], greater than 50 µg/mL; in [16] it was 0.43 µg/mL. Moreover, in assay [17], the IC50 (µg/ml), pseudovirus neutralization came to 16.3 µg/mL. The IC50 was greater than 50 µg/mL in assay [4], 43.6 µg/mL in assay [13] and greater than 50 µg/mL in assay [15]. The same substance returned an IC90 (pseudovirus neutralization) in assay [10] greater than 50 µg/mL.
For the substance b12 (antibody), the IC50 (µg/ml), pseudovirus neutralization in [1] was greater than 50 µg/mL; in assay [2] it was 4.17 µg/mL; in assay [3], greater than 50 µg/mL; in assay [5], 3.64 µg/mL; in assay [6], 6.16 µg/mL; in [7], 0.66 µg/mL. In addition, the IC50 (µg/ml), pseudovirus neutralization in assay [8] was greater than 50 µg/mL; in assay [9], greater than 50 µg/mL; in [11], 0.07 µg/mL; in assay [12], greater than 50 µg/mL; in assay [14], 1.01 µg/mL; in [16], greater than 50 µg/mL. This substance also yielded an IC50 (µg/ml), pseudovirus neutralization in [17] greater than 50 µg/mL. In addition, the IC50 is greater than 50 µg/mL in assay [4], 29.3 µg/mL in [13] and greater than 50 µg/mL in assay [15]. The IC90 (pseudovirus neutralization) in [10] was greater than 50 µg/mL.
